Experimental data as given in patent US20190263922A1 (TIGA TX, published 2019).

Assays:
human CD20 [1] = target: T1, human CD20 (human, UniProt P11836 1-297); assay: LigandTracer Green, 10 nM FITC-labeled mAb on SKBR3-CD20 cells, OneToOne fit, non-competitive dissociation
T1 construct: whole, on cells; Always presented on cells; also called MS4A1; CD20 WT
T1 sequence (looked up): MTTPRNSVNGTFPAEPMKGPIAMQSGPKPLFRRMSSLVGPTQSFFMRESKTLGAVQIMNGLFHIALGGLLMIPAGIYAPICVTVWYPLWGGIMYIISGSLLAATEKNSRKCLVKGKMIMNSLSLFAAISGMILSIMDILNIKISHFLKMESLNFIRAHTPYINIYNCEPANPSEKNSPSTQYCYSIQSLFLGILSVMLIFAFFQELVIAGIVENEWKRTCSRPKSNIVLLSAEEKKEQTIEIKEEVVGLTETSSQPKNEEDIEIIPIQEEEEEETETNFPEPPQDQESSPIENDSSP
Experimental: (§1) Kinetics analysis of interactions between the mAbs and CD20 was performed by using the LigandTracer green Technology (Ridgeview Instruments AB). 10⁶ SKBR3-CD20 cells were seeded on one side of a 10 cm culture dish (Greiner) as target cell area and association of 10 nM FITC-labeled CD20 mAb was measured. For non-competitive or competitive dissociation, labeled mAb solution was replaced by RPMI culture medium or 100 nM unlabeled mAb of the same clone, respectively. Analysis was performed using an OneToOne fitting model in TraceDrawer (Ridgeview Instruments AB).
(§2) A slow Ab off-rate might favor the formation of Ab-Clq complexes, the first component of the classical complement pathway. […] To characterize interaction kinetics and affinity of mAbs, we used the LigandTracer technology to record real-time binding and dissociation of Abs to cellular receptors.

human CD20 [2] = target: T1, human CD20; assay: LigandTracer Green, 10 nM FITC-labeled mAb on SKBR3-CD20 cells, OneToOne fit, competitive dissociation (100 nM unlabeled mAb of the same clone)
Experimental: as §1, §2

human CD20 [3] = target: T1, human CD20; assay: binding assay, parental against L11V version, data not shown
human CD20 [4] = target: T1, human CD20; assay: FACS on Ramos cells, dilution series
human CD20 [5] = target: T1, human CD20; assay: FACS on Daudi cells, dilution series
Experimental: FIG. 8. […] Binding was determined by FACS after incubation of Daudi cells with a dilution series of mAb.
10⁵ Daudi cells were plated out in a 96-well plate and incubated with IgG1-CD20 mAbs (in PBS) for 45 min on ice. After washing, bound CD20 mAbs were detected with goat-F(ab′)₂-anti-hIgG-RPE (Southern Biotech) and subsequently measured on a FACS Canto II (BD).

B1: m2 (mIgG2c-CD20 mAb) (antibody, V domains shown)
VH: QAYLQQSGAELVRPGASVKMSCKASGYTFTSYNMHWVKQTPRQGLEWIGGIYPGNGDTSYNQKFKGKATLTVDKSSSTAYMQLSSLTSEDSAVYFCARYYYGSSYGAMDYWGQGTSVTVSS
VL: QIVLSQSPAILSASPGEKVTMTCRASSSVSYMHWYQQKPGSSPKPWIYATSNLASGVPARFSGSGSGTSYSLTISRVEAADAATYYCHQWTFNPPTFGGGTKLEIK
modifications: FITC- or Alexa647-labelled in the kinetic assays; label sites not given
notes: Mouse IgG2c hybridoma mAb; FITC- or Alexa647-labeled in the kinetic assays
- Kd (human CD20 [1]): 0.21 nM
- koff (human CD20 [1]): 1.77e-05 s⁻¹
- kon (human CD20 [1]): 85400 M⁻¹ s⁻¹
- Kd (human CD20 [2]): 0.96 nM
- koff (human CD20 [2]): 7.8e-05 s⁻¹
- kon (human CD20 [2]): 81700 M⁻¹ s⁻¹

B2: m10 (mIgG2c-CD20 mAb) (antibody, V domains shown)
VH: QAYLQQSGADLVRPGASVKMSCKASGFTFPSYNLHWVKQTPRQGLEWIGAIYPGNGDTSYNQKFKGKATLTVDKSSSTAYMQLSSLTSEDSAVYFCARSAYYGSNVWFFDVWGTGTTVTVSS
VL: QIVLSQSPAILSASPGEKVTMTCRASSSVSYMDWYQQKPGSSPKPWIYATSNLASGVPTRFSGSGSGTSYSLTISRVEAEDAATYYCQQWISNPPTFGAGTKLDLK
modifications: FITC-labelled in the LigandTracer assay; label sites not given
notes: Mouse IgG2c hybridoma mAb; FITC-labeled in LigandTracer
- Kd (human CD20 [1]): 0.19 nM
- koff (human CD20 [1]): 8.17e-06 s⁻¹
- kon (human CD20 [1]): 44200 M⁻¹ s⁻¹
- Kd (human CD20 [2]): 0.51 nM
- koff (human CD20 [2]): 2.82e-05 s⁻¹
- kon (human CD20 [2]): 55700 M⁻¹ s⁻¹

B3: m9 (mIgG2c-CD20 mAb) (antibody, V domains shown)
VH: QAYLQQSGAELVRPGASVKMSCKASGYTFPSYNMHWVKQTPRQGLEWIGAIYPGNGDTSYNQKFKGKASQTVDKSSSTVYMQLSSLTSADSAVYFCARSRLFDSSYGWYFDVWGTGTTVTVSS
VL: QIVLSQSPAILSAYPGEKVTMTCRARSSVSYIDWYQQKAGSSPKPWIYATSNLASGVPARFSGSGSGTSYSLTISRVEAEDAATYYCQQWTSNPPTFGGGTKLEIK
modifications: FITC-labelled antibody in the LigandTracer assay; the label positions are not defined.
notes: as for B2
- Kd (human CD20 [1]): 0.25 nM
- koff (human CD20 [1]): 1.13e-05 s⁻¹
- kon (human CD20 [1]): 45700 M⁻¹ s⁻¹
- Kd (human CD20 [2]): 0.12 nM
- koff (human CD20 [2]): 6.53e-06 s⁻¹
- kon (human CD20 [2]): 53900 M⁻¹ s⁻¹

B4: IgG1-CD20-1 with the L11V mutation (antibody)
heavy: not shown
light: QIVLSQSPAVLFASPGEKVTMTCRARSSVSYMDWYQQKPRSSPKPWIYATSNLASGVPARFSGSGSGTSYSLTISRVEAEDAATYYCQQWTSNPPTFGSGTKLEIKRTVAAPSVFIFPPSDEQLKSGTASVVCLLNNFYPREAKVQWKVDNALQSGNSQESVTEQDSKDSTYSLSSTLTLSKADYEKHKVYACEVTHQGLSSPVTKSFNRGEC
notes: Chimeric human IgG1/kappa; leucine to valine at Kabat position 11 of the VH framework; also called IgG1-CD20-1 L11V
- binding result (human CD20 [3]): binds

B5: IgA2 variant of m2 (IgA-CD20-2 as IgA2(m1)) (antibody)
heavy: QAYLQQSGAELVRPGASVKMSCKASGYTFTSYNMHWVKQTPRQGLEWIGGIYPGNGDTSYNQKFKGKATLTVDKSSSTAYMQLSSLTSEDSAVYFCARYYYGSSYGAMDYWGQGTSVTVSSASPTSPKVFPLSLDSTPQDGNVVVACLVQGFFPQEPLSVTWSESGQNVTARNFPPSQDASGDLYTTSSQLTLPATQCPDGKSVTCHVKHYTNPSQDVTVPCPVPPPPPCCHPRLSLHRPALEDLLLGSEANLTCTLTGLRDASGATFTWTPSSGKSAVQGPPERDLCGCYSVSSVLPGCAQPWNHGETFTCTAAHPELKTPLTANITKSGNTFRPEVHLLPPPSEELALNELVTLTCLARGFSPKDVLVRWLQGSQELPREKYLTWASRQEPSQGTTTFAVTSILRVAAEDWKKGDTFSCMVGHEALPLAFTQKTIDRLAGKPTHVNVSVVMAEVDGTCY
light: QIVLSQSPAILSASPGEKVTMTCRASSSVSYMHWYQQKPGSSPKPWIYATSNLASGVPARFSGSGSGTSYSLTISRVEAADAATYYCHQWTFNPPTFGGGTKLEIKRTVAAPSVFIFPPSDEQLKSGTASVVCLLNNFYPREAKVQWKVDNALQSGNSQESVTEQDSKDSTYSLSSTLTLSKADYEKHKVYACEVTHQGLSSPVTKSFNRGEC
notes: Monomeric human IgA2(m1) constant region (pEE14.4-IgA2(m1)) and human kappa light chain; also called IgA2-CD20 mAb; IgA2-CD20 UMAB002
- binding result (human CD20 [4]): binds

B6: IgA2 variant of m1 (IgA-CD20-1 as IgA2(m1)) (antibody)
heavy: QAYLQQSGAELVRPGASVKMSCKASGYTFTSYNLHWVKQTPRQGLEWIGAIYPGNGDTSYNQKFKGKATLTVDKSSSTAYMQLSRLTSEDSAVYFCARSNSYGSTYWYFDVWGTGTTVTVSSASPTSPKVFPLSLDSTPQDGNVVVACLVQGFFPQEPLSVTWSESGQNVTARNFPPSQDASGDLYTTSSQLTLPATQCPDGKSVTCHVKHYTNPSQDVTVPCPVPPPPPCCHPRLSLHRPALEDLLLGSEANLTCTLTGLRDASGATFTWTPSSGKSAVQGPPERDLCGCYSVSSVLPGCAQPWNHGETFTCTAAHPELKTPLTANITKSGNTFRPEVHLLPPPSEELALNELVTLTCLARGFSPKDVLVRWLQGSQELPREKYLTWASRQEPSQGTTTFAVTSILRVAAEDWKKGDTFSCMVGHEALPLAFTQKTIDRLAGKPTHVNVSVVMAEVDGTCY
light: QIVLSQSPAVLFASPGEKVTMTCRARSSVSYMDWYQQKPRSSPKPWIYATSNLASGVPARFSGSGSGTSYSLTISRVEAEDAATYYCQQWTSNPPTFGSGTKLEIKRTVAAPSVFIFPPSDEQLKSGTASVVCLLNNFYPREAKVQWKVDNALQSGNSQESVTEQDSKDSTYSLSSTLTLSKADYEKHKVYACEVTHQGLSSPVTKSFNRGEC
notes: Monomeric human IgA2(m1) constant region (pEE14.4-IgA2(m1)) and human kappa light chain; also called IgA2-CD20 mAb; IgA2-CD20 UMAB001
- binding result (human CD20 [4]): binds

B7: IgA1 variant of m2 (IgA-CD20-2 as IgA1) (antibody)
heavy: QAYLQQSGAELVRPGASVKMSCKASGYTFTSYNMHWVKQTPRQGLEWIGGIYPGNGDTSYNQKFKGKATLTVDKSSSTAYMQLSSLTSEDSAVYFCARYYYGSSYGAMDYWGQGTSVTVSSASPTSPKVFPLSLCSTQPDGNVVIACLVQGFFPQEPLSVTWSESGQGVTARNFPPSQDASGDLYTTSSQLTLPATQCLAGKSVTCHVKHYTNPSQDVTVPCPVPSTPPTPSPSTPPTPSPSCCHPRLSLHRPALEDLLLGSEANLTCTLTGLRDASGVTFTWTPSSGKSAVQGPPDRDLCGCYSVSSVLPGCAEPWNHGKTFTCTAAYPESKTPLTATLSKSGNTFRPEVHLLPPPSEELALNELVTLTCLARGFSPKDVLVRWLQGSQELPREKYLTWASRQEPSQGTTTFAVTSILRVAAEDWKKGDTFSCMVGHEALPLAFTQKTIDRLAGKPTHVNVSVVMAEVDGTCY
light: QIVLSQSPAILSASPGEKVTMTCRASSSVSYMHWYQQKPGSSPKPWIYATSNLASGVPARFSGSGSGTSYSLTISRVEAADAATYYCHQWTFNPPTFGGGTKLEIKRTVAAPSVFIFPPSDEQLKSGTASVVCLLNNFYPREAKVQWKVDNALQSGNSQESVTEQDSKDSTYSLSSTLTLSKADYEKHKVYACEVTHQGLSSPVTKSFNRGEC
notes: Monomeric human IgA1 constant region (pEE14.4-IgA1) and human kappa light chain; also called IgA1-CD20 mAb; IgA1-CD20 UMAB002
- binding result (human CD20 [4]): binds

B8: IgA1 variant of m1 (IgA-CD20-1 as IgA1) (antibody)
heavy: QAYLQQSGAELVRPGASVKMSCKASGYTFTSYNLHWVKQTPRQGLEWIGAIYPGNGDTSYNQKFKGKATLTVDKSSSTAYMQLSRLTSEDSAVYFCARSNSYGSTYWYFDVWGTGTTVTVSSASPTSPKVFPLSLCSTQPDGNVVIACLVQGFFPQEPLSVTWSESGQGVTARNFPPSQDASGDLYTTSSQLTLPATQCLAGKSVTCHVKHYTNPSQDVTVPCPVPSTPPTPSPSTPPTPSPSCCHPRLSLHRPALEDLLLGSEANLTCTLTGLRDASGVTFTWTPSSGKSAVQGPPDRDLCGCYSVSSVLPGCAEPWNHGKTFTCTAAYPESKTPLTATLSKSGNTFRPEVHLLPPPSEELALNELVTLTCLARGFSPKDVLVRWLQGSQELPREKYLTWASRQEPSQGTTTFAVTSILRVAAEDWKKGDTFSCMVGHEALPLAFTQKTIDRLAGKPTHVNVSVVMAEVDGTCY
light: QIVLSQSPAVLFASPGEKVTMTCRARSSVSYMDWYQQKPRSSPKPWIYATSNLASGVPARFSGSGSGTSYSLTISRVEAEDAATYYCQQWTSNPPTFGSGTKLEIKRTVAAPSVFIFPPSDEQLKSGTASVVCLLNNFYPREAKVQWKVDNALQSGNSQESVTEQDSKDSTYSLSSTLTLSKADYEKHKVYACEVTHQGLSSPVTKSFNRGEC
notes: Monomeric human IgA1 constant region (pEE14.4-IgA1) and human kappa light chain; also called IgA1-CD20 mAb; IgA1-CD20 UMAB001
- binding result (human CD20 [4]): binds

B9: IgG1-CD20-2 with the L11V mutation (antibody)
heavy: not shown
light: QIVLSQSPAILSASPGEKVTMTCRASSSVSYMHWYQQKPGSSPKPWIYATSNLASGVPARFSGSGSGTSYSLTISRVEAADAATYYCHQWTFNPPTFGGGTKLEIKRTVAAPSVFIFPPSDEQLKSGTASVVCLLNNFYPREAKVQWKVDNALQSGNSQESVTEQDSKDSTYSLSSTLTLSKADYEKHKVYACEVTHQGLSSPVTKSFNRGEC
notes: Chimeric human IgG1/kappa; leucine to valine at Kabat position 11 of the VH framework; also called IgG1-CD20-2 L11V
- binding result (human CD20 [3]): binds

B10: IgG1-CD20-9 (antibody, V domains shown)
VH: QAYLQQSGAELVRPGASVKMSCKASGYTFPSYNMHWVKQTPRQGLEWIGAIYPGNGDTSYNQKFKGKASQTVDKSSSTVYMQLSSLTSADSAVYFCARSRLFDSSYGWYFDVWGTGTTVTVSS
VL: QIVLSQSPAILSAYPGEKVTMTCRARSSVSYIDWYQQKAGSSPKPWIYATSNLASGVPARFSGSGSGTSYSLTISRVEAEDAATYYCQQWTSNPPTFGGGTKLEIKR
notes: Chimeric: human IgG1 constant region and human kappa light chain; also called chimerized version of m9
- binding result (human CD20 [5]): binds

B11: IgG1-CD20-10 (antibody, V domains shown)
VH: QAYLQQSGADLVRPGASVKMSCKASGFTFPSYNLHWVKQTPRQGLEWIGAIYPGNGDTSYNQKFKGKATLTVDKSSSTAYMQLSSLTSEDSAVYFCARSAYYGSNVWFFDVWGTGTTVTVSS
VL: QIVLSQSPAILSASPGEKVTMTCRASSSVSYMDWYQQKPGSSPKPWIYATSNLASGVPTRFSGSGSGTSYSLTISRVEAEDAATYYCQQWISNPPTFGAGTKLDLKR
notes: Chimeric: human IgG1 constant region and human kappa light chain; also called chimerized version of m10
- binding result (human CD20 [5]): binds

B12: IgG1-CD20-7 (antibody, V domains shown)
VH: QAYLQQSGAELVRPGASVKMSCKASGYTFASYNMHWIKQTPRQGLEWIAAIYPGNGDTSYNQKFKGKATLTVDKSSSTAYMQLSSLTSEDSAVYFCARTYYYGSSPYWSFDVWGTGTTVTVSS
VL: DIQMTQSPASLSASVGETVTVTCGASYNIYGALNWYQRKQGKSPQLLIYGATNLADGMSSRFSGSGSGRQYSLKISSLHPDDVATYYCQNVLSNPPTFGGGTKLEIKR
notes: Chimeric: human IgG1 constant region and human kappa light chain; also called chimerized version of m7
- binding result (human CD20 [5]): binds
